Data published in patent publication US20160264649A1.

Experiments:
Test in all cases: cell-based or functional assay
[1] = biological target: HIV-1 Env of isolate MGRM-F1-017 (subtype F) (HIV-1)
[2] = biological target: HIV-1 Env of isolate MGRM-D-014 (subtype D) (HIV-1)
[3] = biological target: HIV-1 Env of isolate 92WR009 (subtype A) (HIV-1)
[4] = biological target: HIV-1 Env of isolate 94UG103 (subtype A) (HIV-1)
[5] = biological target: HIV-1 Env of isolate MGRM-D-002 (subtype D) (HIV-1)
[6] = biological target: HIV-1 Env of isolate 92UG037 (subtype A) (HIV-1)
[7] = biological target: HIV-1 Env of isolate MGRM-D-008 (subtype D) (HIV-1)
[8] = biological target: HIV-1 Env of isolate MGRM-D-020 (subtype D) (HIV-1)
[9] = biological target: HIV-1 Env of isolate MGRM-D-013 (subtype D) (HIV-1)
[10] = biological target: HIV-1 Env of isolate MGRM-D-028 (subtype D) (HIV-1)
[11] = biological target: HIV-1 Env of isolate MGRM-D-026 (subtype D) (HIV-1)
[12] = biological target: HIV-1 Env of isolate 92UG114 (subtype D) (HIV-1)
[13] = biological target: HIV-1 Env of isolate MGRM-AE-005 (subtype AE) (HIV-1)
[14] = biological target: HIV-1 Env of isolate MGRM-F1-015 (subtype F) (HIV-1)
[15] = biological target: HIV-1 Env of isolate MGRM-D-029 (subtype D) (HIV-1)
[16] = biological target: HIV-1 Env of isolate 92WR020 (subtype A) (HIV-1)
[17] = biological target: HIV-1 Env of isolate 93WR029 (subtype A) (HIV-1)
[18] = biological target: HIV-1 Env of isolate MGRM-D-019 (subtype D) (HIV-1)
[19] = biological target: HIV-1 Env of isolate MGRM-D-005 (subtype D) (HIV-1)
[20] = biological target: HIV-1 Env of isolate MGRM-D-021 (subtype D) (HIV-1)
[21] = biological target: HIV-1 Env of isolate MGRM-D-011 (subtype D) (HIV-1)
[22] = biological target: HIV-1 Env of isolate MGRM-F1-012 (subtype F) (HIV-1)
[23] = biological target: HIV-1 Env of isolate MGRM-F1-013 (subtype F) (HIV-1)
[24] = biological target: HIV-1 Env of isolate MGRM-F1-022 (subtype F) (HIV-1)
[25] = biological target: HIV-1 Env of isolate MGRM-D-024 (subtype D) (HIV-1)
[26] = biological target: HIV-1 Env of isolate MGRM-D-001 (subtype D) (HIV-1)
[27] = biological target: HIV-1 Env of isolate MGRM-F1-020 (subtype F) (HIV-1)
[28] = biological target: HIV-1 Env of isolate MGRM-AE-003 (subtype AE) (HIV-1)
[29] = biological target: HIV-1 Env of isolate 92UG031 (subtype A) (HIV-1)
[30] = biological target: HIV-1 Env of isolate 92WR021 (subtype A) (HIV-1)
[31] = biological target: HIV-1 Env of isolate VLGCA1 (subtype A) (HIV-1)
[32] = biological target: HIV-1 Env of isolate MGRM-D-022 (subtype D) (HIV-1)
[33] = biological target: HIV-1 Env of isolate MGRM-AE-002 (subtype AE) (HIV-1)
[34] = biological target: HIV-1 Env of isolate MGRM-F1-018 (subtype F) (HIV-1)
[35] = biological target: HIV-1 Env of isolate MGRM-D-004 (subtype D) (HIV-1)
[36] = biological target: HIV-1 Env of isolate MGRM-D-018 (subtype D) (HIV-1)
[37] = biological target: HIV-1 Env of isolate MGRM-F1-006 (subtype F) (HIV-1)
[38] = biological target: HIV-1 Env of isolate MGRM-AE-004 (subtype AE) (HIV-1)
[39] = biological target: HIV-1 Env of isolate MGRM-D-016 (subtype D) (HIV-1)
[40] = biological target: HIV-1 Env of isolate 92TH021 (subtype AE) (HIV-1)
[41] = biological target: HIV-1 Env of isolate MGRM-F1-023 (subtype F) (HIV-1)
[42] = biological target: HIV-1 Env of isolate MGRM-D-003 (subtype D) (HIV-1)
[43] = biological target: HIV-1 Env of isolate MGRM-F1-014 (subtype F) (HIV-1)
[44] = biological target: HIV-1 Env of isolate MGRM-D-012 (subtype D) (HIV-1)
[45] = biological target: HIV-1 Env of isolate MGRM-F1-004 (subtype F) (HIV-1)
[46] = biological target: HIV-1 Env of isolate MGRM-F1-021 (subtype F) (HIV-1)
[47] = biological target: HIV-1 Env of isolate MGRM-F1-016 (subtype F) (HIV-1)
[48] = biological target: HIV-1 Env of isolate MGRM-F1-010 (subtype F) (HIV-1)
[49] = biological target: HIV-1 Env of isolate 92WR024 (subtype A) (HIV-1)
[50] = biological target: HIV-1 Env of isolate MGRM-F1-008 (subtype F) (HIV-1)
[51] = biological target: HIV-1 Env of isolate CMU02 (subtype AE) (HIV-1)
[52] = biological target: HIV-1 Env of isolate 92WR026 (subtype A) (HIV-1)
[53] = biological target: HIV-1 Env of isolate MGRM-AE-007 (subtype AE) (HIV-1)
[54] = biological target: HIV-1 Env of isolate 94 KE 105 (subtype AC) (HIV-1)
[55] = biological target: HIV-1 Env of isolate 93UG077 (subtype A) (HIV-1)
[56] = biological target: HIV-1 Env of isolate MGRM-AE-006 (subtype AE) (HIV-1)
[57] = biological target: HIV-1 Env of isolate MGRM-AE-001 (subtype AE) (HIV-1)
[58] = biological target: HIV-1 Env of isolate MGRM-AE-008 (subtype AE) (HIV-1)

Chain of PGT-141 (4964_G22; 4993_K13) (antibody) (VH): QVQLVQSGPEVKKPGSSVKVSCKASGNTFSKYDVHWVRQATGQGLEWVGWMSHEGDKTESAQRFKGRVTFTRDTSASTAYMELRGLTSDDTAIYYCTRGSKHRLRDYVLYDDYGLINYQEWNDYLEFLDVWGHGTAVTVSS
Chain of PGT-141 (4964_G22; 4993_K13) (antibody) (VL): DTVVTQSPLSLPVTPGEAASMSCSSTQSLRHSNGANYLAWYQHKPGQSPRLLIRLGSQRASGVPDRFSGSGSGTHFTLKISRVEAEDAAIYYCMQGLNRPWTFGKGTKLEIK
Chain of PGT-142 (4995_E20) (antibody) (VH): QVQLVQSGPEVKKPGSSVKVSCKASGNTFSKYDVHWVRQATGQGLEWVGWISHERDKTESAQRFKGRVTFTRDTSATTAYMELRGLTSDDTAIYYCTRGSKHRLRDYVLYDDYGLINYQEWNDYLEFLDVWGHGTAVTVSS
Chain of PGT-142 (4995_E20) (antibody) (VL): as the sequence (VL) above

PGT-141 (4964_G22; 4993_K13) (antibody)
IC50 (pseudovirus neutralization) [1]: 30.8 µg/mL
IC50 (pseudovirus neutralization) [2]: 0.01 µg/mL
IC50 (pseudovirus neutralization) [3]: 0.022 µg/mL
IC50 (pseudovirus neutralization) [4]: > 50 µg/mL
IC50 (pseudovirus neutralization) [5]: > 50 µg/mL
IC50 (pseudovirus neutralization) [6]: 1.28 µg/mL
IC50 (pseudovirus neutralization) [7]: 0.371 µg/mL
IC50 (pseudovirus neutralization) [8]: > 50 µg/mL
IC50 (pseudovirus neutralization) [9]: 0.179 µg/mL
IC50 (pseudovirus neutralization) [10]: > 50 µg/mL
IC50 (pseudovirus neutralization) [11]: 32.5 µg/mL
IC50 (pseudovirus neutralization) [12]: > 50 µg/mL
IC50 (pseudovirus neutralization) [13]: > 50 µg/mL
IC50 (pseudovirus neutralization) [14]: > 50 µg/mL
IC50 (pseudovirus neutralization) [15]: 0.057 µg/mL
IC50 (pseudovirus neutralization) [16]: > 50 µg/mL
IC50 (pseudovirus neutralization) [17]: 0.019 µg/mL
IC50 (pseudovirus neutralization) [18]: 1.66 µg/mL
IC50 (pseudovirus neutralization) [19]: 5.15 µg/mL
IC50 (pseudovirus neutralization) [20]: > 50 µg/mL
IC50 (pseudovirus neutralization) [21]: > 50 µg/mL
IC50 (pseudovirus neutralization) [22]: > 50 µg/mL
IC50 (pseudovirus neutralization) [23]: 0.043 µg/mL
IC50 (pseudovirus neutralization) [24]: 0.114 µg/mL
IC50 (pseudovirus neutralization) [25]: > 50 µg/mL
IC50 (pseudovirus neutralization) [26]: > 50 µg/mL
IC50 (pseudovirus neutralization) [27]: 1.15 µg/mL
IC50 (pseudovirus neutralization) [28]: > 50 µg/mL
IC50 (pseudovirus neutralization) [29]: 0.093 µg/mL
IC50 (pseudovirus neutralization) [30]: > 50 µg/mL
IC50 (pseudovirus neutralization) [31]: 2.07 µg/mL
IC50 (pseudovirus neutralization) [32]: > 50 µg/mL
IC50 (pseudovirus neutralization) [33]: > 50 µg/mL
IC50 (pseudovirus neutralization) [34]: 0.785 µg/mL
IC50 (pseudovirus neutralization) [35]: > 50 µg/mL
IC50 (pseudovirus neutralization) [36]: > 50 µg/mL
IC50 (pseudovirus neutralization) [37]: 8.99 µg/mL
IC50 (pseudovirus neutralization) [38]: 0.001 µg/mL
IC50 (pseudovirus neutralization) [39]: > 50 µg/mL
IC50 (pseudovirus neutralization) [40]: 0.001 µg/mL
IC50 (pseudovirus neutralization) [41]: 0.307 µg/mL
IC50 (pseudovirus neutralization) [42]: > 50 µg/mL
IC50 (pseudovirus neutralization) [43]: 0.001 µg/mL
IC50 (pseudovirus neutralization) [44]: > 50 µg/mL
IC50 (pseudovirus neutralization) [45]: 0.021 µg/mL
IC50 (pseudovirus neutralization) [46]: > 50 µg/mL
IC50 (pseudovirus neutralization) [47]: > 50 µg/mL
IC50 (pseudovirus neutralization) [48]: > 50 µg/mL
IC50 (pseudovirus neutralization) [49]: 0.175 µg/mL
IC50 (pseudovirus neutralization) [50]: 0.193 µg/mL
IC50 (pseudovirus neutralization) [51]: > 50 µg/mL
IC50 (pseudovirus neutralization) [52]: 1.78 µg/mL
IC50 (pseudovirus neutralization) [53]: 33.1 µg/mL
IC50 (pseudovirus neutralization) [54]: 0.204 µg/mL
IC50 (pseudovirus neutralization) [55]: > 50 µg/mL
IC50 (pseudovirus neutralization) [56]: > 50 µg/mL
IC50 (pseudovirus neutralization) [57]: > 50 µg/mL
IC50 (pseudovirus neutralization) [58]: 0.101 µg/mL

PGT-142 (4995_E20) (antibody)
IC50 (pseudovirus neutralization) [1]: 23.5 µg/mL
IC50 (pseudovirus neutralization) [2]: 0.005 µg/mL
IC50 (pseudovirus neutralization) [3]: 0.006 µg/mL
IC50 (pseudovirus neutralization) [4]: > 50 µg/mL
IC50 (pseudovirus neutralization) [5]: > 50 µg/mL
IC50 (pseudovirus neutralization) [6]: 0.557 µg/mL
IC50 (pseudovirus neutralization) [7]: 0.174 µg/mL
IC50 (pseudovirus neutralization) [8]: > 50 µg/mL
IC50 (pseudovirus neutralization) [9]: 0.221 µg/mL
IC50 (pseudovirus neutralization) [10]: > 50 µg/mL
IC50 (pseudovirus neutralization) [11]: 12.5 µg/mL
IC50 (pseudovirus neutralization) [12]: > 50 µg/mL
IC50 (pseudovirus neutralization) [13]: > 50 µg/mL
IC50 (pseudovirus neutralization) [14]: > 50 µg/mL
IC50 (pseudovirus neutralization) [15]: 0.192 µg/mL
IC50 (pseudovirus neutralization) [16]: 31.5 µg/mL
IC50 (pseudovirus neutralization) [17]: 0.014 µg/mL
IC50 (pseudovirus neutralization) [18]: 0.155 µg/mL
IC50 (pseudovirus neutralization) [19]: 1.15 µg/mL
IC50 (pseudovirus neutralization) [20]: > 50 µg/mL
IC50 (pseudovirus neutralization) [21]: > 50 µg/mL
IC50 (pseudovirus neutralization) [22]: > 50 µg/mL
IC50 (pseudovirus neutralization) [23]: 0.023 µg/mL
IC50 (pseudovirus neutralization) [24]: 0.04 µg/mL
IC50 (pseudovirus neutralization) [25]: > 50 µg/mL
IC50 (pseudovirus neutralization) [26]: > 50 µg/mL
IC50 (pseudovirus neutralization) [27]: 0.824 µg/mL
IC50 (pseudovirus neutralization) [28]: > 50 µg/mL
IC50 (pseudovirus neutralization) [29]: 0.05 µg/mL
IC50 (pseudovirus neutralization) [30]: > 50 µg/mL
IC50 (pseudovirus neutralization) [31]: 2.75 µg/mL
IC50 (pseudovirus neutralization) [32]: > 50 µg/mL
IC50 (pseudovirus neutralization) [33]: > 50 µg/mL
IC50 (pseudovirus neutralization) [34]: 0.404 µg/mL
IC50 (pseudovirus neutralization) [35]: > 50 µg/mL
IC50 (pseudovirus neutralization) [36]: > 50 µg/mL
IC50 (pseudovirus neutralization) [37]: 12.9 µg/mL
IC50 (pseudovirus neutralization) [38]: 0.001 µg/mL
IC50 (pseudovirus neutralization) [39]: > 50 µg/mL
IC50 (pseudovirus neutralization) [40]: 0.002 µg/mL
IC50 (pseudovirus neutralization) [41]: 0.602 µg/mL
IC50 (pseudovirus neutralization) [42]: > 50 µg/mL
IC50 (pseudovirus neutralization) [43]: 0.001 µg/mL
IC50 (pseudovirus neutralization) [44]: > 50 µg/mL
IC50 (pseudovirus neutralization) [45]: 0.013 µg/mL
IC50 (pseudovirus neutralization) [46]: > 50 µg/mL
IC50 (pseudovirus neutralization) [47]: > 50 µg/mL
IC50 (pseudovirus neutralization) [48]: > 50 µg/mL
IC50 (pseudovirus neutralization) [49]: 0.069 µg/mL
IC50 (pseudovirus neutralization) [50]: 0.124 µg/mL
IC50 (pseudovirus neutralization) [51]: > 50 µg/mL
IC50 (pseudovirus neutralization) [52]: 1.78 µg/mL
IC50 (pseudovirus neutralization) [53]: 6.7 µg/mL
IC50 (pseudovirus neutralization) [54]: 0.19 µg/mL
IC50 (pseudovirus neutralization) [55]: > 50 µg/mL
IC50 (pseudovirus neutralization) [56]: > 50 µg/mL
IC50 (pseudovirus neutralization) [57]: > 50 µg/mL
IC50 (pseudovirus neutralization) [58]: 0.08 µg/mL
